Laboratory results taken from patent US8153597B2, “Modulators of the ABC transporter family and methods for their use” (priority 2003, dated 2012).
Read-outs that look alike come from different tables or passages of the source.

B1: PA2934-His: purified C-terminal penta-histidine tagged PA2934 (Cif, CFTR inhibitory factor; SEQ ID NO:1) expressed in E. coli (protein, listed as Pseudomonas aeruginosa)
chain: MILDRLCRGLLAGIALTFSLGGFAAEEFPVPNGFESAYREVDGVKLHYVKGGQGPLVMLVHGFGQTWYEWHQLMPELAKRFTVIAPDLPGLGQSEPPKTGYSGEQVAVYLHKLARQFSPDRPFDLVAHDIGIWNTYPMVVKNQADIARLVYMEAPIPDARIYRFPAFTAQGESLVWHFSFFAADDRLAETLIAGKERFFLEHFIKSHSSNTEVFSERLLDLYARSYAKPHSLNASFEYYRALNESVRQNAELAKTRLQMPTMTLAGGGHGGMGTFQLEQMKAYADDVEGHVLPGCGHWLPEECAAPMNRLVIDFLSRGR
modifications: C-terminal penta-His tag

Key:
[1] = tested on: CFTR-mediated Cl− secretion; assay: Ussing chamber: CFTR-mediated Cl− secretion (Isc) across polarized CFBE41o− human airway epithelial cells; format: cell-based
Description: These experiments were conducted in CFBE41o− cells stably expressing either wt-CFTR or ΔF508-CFTR and in parental (non-transfected ΔF508/ΔF508) CFBE41o− cells. To increase apical membrane expression of ΔF508-CFTR, cells were grown at 27° C. for 36 hours in accordance with methods set forth in Example 5. […] Parental CFBE41o− cells, and CFBE41o− cells stably expressing either wt-CFTR or ΔF508-CFTR were incubated at 27° C. in a CO2 incubator in the absence of antibiotics. Vehicle or PA14 bacteria (5×10^8 CFU/ml) were added to the apical side of the monolayers.
Monolayers grown on Transwell (6.5 mm diameter) or Snapwell (12 mm diameter) permeable supports, as described in Example 1, were mounted in an Ussing-type chamber (Jim's Instruments; Iowa City, Iowa or Physiologic Instruments; San Diego, Calif.) and bathed in solutions, pH 7.4 maintained at 37° C. and stirred by bubbling with 5% CO2/95% air. Short circuit current (Isc) was measured by voltage-clamping the transepithelial voltage across the monolayers to 0 mV with a voltage clamp (model VCC MC6, Physiologic Instruments, San Diego, Calif.). Current output from the clamp was digitized by an analog-to-digital converter (iWorx; Dover, N.H.). Data collection and analysis were done with LabScribe v1.6 Software (iWorx; Dover, N.H.). Stimulated Isc was measured after addition of 100 μM CPT-cAMP (Calu-3 and MDCK cells) or 20 μM forskolin (wt-CFTR CFBE41o− cells) to the apical and basolateral bath solution or 50 μM genistein (ΔF508-CFTR CFBE41o− cells) to the apical bath solution. Net stimulated Isc (ΔIsc) was calculated by subtracting the baseline Isc measured before stimulation from the peak Isc measured after stimulation. Glybenclamide (200 μM) was added to the apical bath solution to inhibit CFTR-mediated Isc.
CFBE41o− cells were bathed in solutions with a basolateral-to-apical Cl− gradient in the presence of amiloride (100 μM) in the apical bath solution to inhibit Na+ absorption through the epithelial Na+ channel (ENaC). […]

[2] = Epoxide hydrolase activity assay, degradation of (S)-NEPC; format: biochemical; details: purified protein; 60 minute incubation period
Description: To assess whether Cif acts as an epoxide hydrolase, its ability to degrade the synthetic epoxide hydrolase substrate (2S,3S)-trans-3-Phenyl-2-oxiranylmethyl 4-nitrophenyl carbonate ((S)-NEPC) was assessed. This assay measures the production of the product p-nitrophenol, which is yellow in color and absorbs maximally at 405 nm.
Purified PA2934-His was assayed for its ability to degrade the epoxide hydrolase synthetic substrate (2S,3S)-trans-3-Phenyl-2-oxiranylmethyl 4-nitrophenyl carbonate ((S)-NEPC) (Sigma, St. Louis, Mo.). […] Degradation of (S)-NEPC was measured as an increase in absorbance at OD405 utilizing a Molecular Devices SpectraMax M2 plate reader. Reactions were normalized to controls lacking enzyme, accounting for spontaneous hydrolysis of the substrate.

wt-CFTR = assay: Cell-surface biotinylation: apical membrane expression of wt-CFTR in canine (MDCK) cells; format: cell-based; details: purified protein
Description: In these experiments two human cell lines endogenously expressing CFTR, Pgp, BCRP and MRP2, and polarized canine and rat cells stably expressing wild-type (wt)-CFTR and/or Pgp, were contacted with a pelleted fraction of either P. aeruginosa strain PA14 or eight different clinical isolates. Apical membrane expression of CFTR, Pgp, and MRP2 was measured by cell-surface biotinylation. Epithelial cells were then lysed and biotinylated proteins were isolated, separated and amounts of apical membrane expression of CFTR, PgP and MRP2 were determined.
Epithelial cell cultures were grown on Transwell permeable growth supports (24 mm diameter, 0.4 μm pore size; Corning Corporation, Corning, N.Y.: #3412). Apical membrane expression of CFTR, Pgp, MRP1, BCRP and MRP2 was measured by cell-surface biotinylation as described by Lisanti, et al. (J. Cell Biol. 1989 109:2117-2127) and Swiatecka-Urban et al. J. Biol. Chem. 2002 277(42):40099-105).
MDCK cells stably expressing GFP-wt-CFTR or GFP-ΔF508-CFTR fusion proteins were established and maintained in culture in a 5% CO2/95% air incubator at 37° C. in MEM complete medium containing 50 U/ml penicillin, 50 μg/ml streptomycin, 2 mM L-glutamine, 10% FBS, and 150 μg/ml G418. Addition of GFP to the N-terminus of CFTR has no effect on CFTR localization, trafficking, function as a Cl channel, or on its degradation. MDCK cells were seeded on Transwell permeable supports (0.2×10^6 on 6.5 mm and 24 mm diameter, 0.4 μm pore size; Corning Corporation; Corning, N.Y.) and grown in culture at 37° C. for 7-10 days. Under these conditions, MDCK cells become polarized. Sodium butyrate (5 mM; Sigma-Aldrich; St. Louis, Mo.) was added to the MDCK cell culture medium 16-18 hours before experiments to stimulate CFTR expression.
In these experiments, apical membrane proteins were biotinylated at 4° C. using a derivative of biotin (EZ-Link™ Sulfo-NHS-LC-Biotin: Pierce). […] Biotinylated CFTR, Pgp, BCRP and MRP-2 were analyzed by Western blotting using antibodies against CFTR, Pgp, and MRP-2, respectively. […]

MDCK-GFP-MDR1 cells = format: cell-based, canine; details: pre-treatment 60 min, then Dox (0, 1, 3, 5 or 10 μM) for 4 hrs at 37 C; buffer ˜5%
Text: The studies above indicate that CIF reduces the plasma membrane expression of P-glycoprotein (i.e. Pgp or multidrug resistance protein (MDR)), MRP2, BCRP and other members of the ABC transmembrane protein family, whose functions include the transport of small molecules across cell membranes. More specifically, members of the ABC transporter family function by preventing therapeutics including but not limited to anti-cancer therapies and antibiotics from accumulating in the central nervous system, and by conferring the observed “drug resistance” of numerous cancers. […]
MDCK-GFP-MDR1 cells, MDCK-C7 cells stably transfected with GFP-Pgp under the transcriptional control of human MDR1 promoter as described by Maitra et al. (Biochem J 2001 355:617-624) were used in these studies. […] Cell viability was then assessed using the CellTiter 96Queous One Solution Cell Proliferation assay. After incubating for 4 hours at 37° C., the absorbance was determined at 490 nm.

| Molecule | inhibition of forskolin stimulated CFTR-mediated Cl− ion secretion [1] | epoxide hydrolase activity (degradation of (S)-NEPC, absorbance at 405 nm) [2] | effect on apical expression of CFTR (wt-CFTR) | reduction of apical expression of CFTR (wt-CFTR; 60 minutes after treatment) | reduction of apical expression of CFTR (wt-CFTR; at 90 minutes) | inhibition of forskolin stimulated CFTR-mediated Cl− ion secretion ([1]; WT-CFBE cells, added to apical face, 50 μg PA2934-His, CFTRinh-172 5 μM) | reduction of CFTR Cl− currents ([1]; WT-CFBE cells, relative to CFTRinh-172-sensitive current) | reduction in cell viability (MDCK-GFP-MDR1 cells) |
| --- | --- | --- | --- | --- | --- | --- | --- | --- |
| O=C(O)c1ccc(/C=C2\SC(=S)N(c3cccc(C(F)(F)F)c3)C2=O)cc1 [CFTRinh-172, reference compound] | ~50 μA/cm^2 |  |  |  |  |  |  |  |
| B1 |  | capable of degrading this compound in a protein concentration dependent manner | significantly decreases | > 60% | > 70% | ~30 μA/cm^2 | approximately 60% | ~25% |
